Common to all, as to experiment: capture ELISA: Ab1 on anti-human IgG Fc, His-tagged receptor at 0.04 µg/mL, anti-His HRP
Assay [1] concerns the target T1, hexahistidine tagged human IL-4Rα ECD P192R (human, UniProt P24394 26-232).
T1 construct: not shown: hexahistidine tag
The source says:
(§1) Example 2d. […] Briefly, thirty surface amino acid residue substitutions were introduced individually into hexahistidine tagged human IL-4Rα extra cellular domain (ECD) as follows: K2D, E6R, K22D, P26R, T31R, F41A, L42G, L43G, E45R, E52R, G56R, D66R, A71R, Q82G, K87D, E94R, H107A, D108R, P124R, D125R, D143R, R148D, L155R, R160D, S164R, S168R, Q181R, P192R, K195D, or H197G. Each mutant protein having a single amino acid residue substitution as described above was transiently expressed in CHO cells and purified using standard immobilized metal affinity chromatography techniques. […] The plates were then washed 3 times with PBST and the exemplified human IL-4Rα antibody was added to the wells at a final concentration of 1 μg/mL in PBS-casein and incubated for 1 hour at room temperature. The plates were washed 3 times with PBST, the IL-4Rα mutant proteins were serially diluted 5-fold from 1 μg/mL for 3 points. in PBS-casein and added to the plate at 50 μL/well and incubated for 1 hour at room temperature. The plates were washed 3 times with PBST and a 1000-fold dilution of anti-histidine tag antibody HRP conjugate (R&D Systems, Cat. #MAB050H) in PBS-casein was added and incubated for 45 minutes at room temperature. The plates were washed 3 times, TMB substrate (Pierce, Cat. #34028) was added per manufacturer instructions, the reaction was quenched with H₂SO₄, and absorbance was read at 450 nm on an ELISA plate reader.

In assay [2] the target is T2, hexahistidine tagged human IL-4Rα ECD E52R (human, UniProt P24394 26-232).
T2 construct: not shown: hexahistidine tag
Description: as §1

For assay [3], the target named is T3, hexahistidine tagged human IL-4Rα ECD P26R (human, UniProt P24394 26-232).
T3 construct: not shown: hexahistidine tag
Description: as §1

For assay [4], the target named is T4, hexahistidine tagged human IL-4Rα ECD Q82G (human, UniProt P24394 26-232).
T4 construct: not shown: hexahistidine tag
Description: as §1

Assay [5] addresses T5, hexahistidine tagged human IL-4Rα ECD L155R (human, UniProt P24394 26-232).
T5 construct: not shown: hexahistidine tag
Description: as §1

For assay [6], the target named is T6, hexahistidine tagged human IL-4Rα ECD E45R (human, UniProt P24394 26-232).
T6 construct: not shown: hexahistidine tag
Description: as §1

Assay [7] addresses T7, hexahistidine tagged human IL-4Rα ECD S168R (human, UniProt P24394 26-232).
T7 construct: not shown: hexahistidine tag
Description: as §1

Assay [8] deals with T8, hexahistidine tagged human IL-4Rα ECD Q181R (human, UniProt P24394 26-232).
T8 construct: not shown: hexahistidine tag
Description: as §1

Assay [9] deals with T9, hexahistidine tagged human IL-4Rα ECD D125R (human, UniProt P24394 26-232).
T9 construct: not shown: hexahistidine tag
Description: as §1

Assay [10] concerns the target T10, hexahistidine tagged human IL-4Rα ECD K2D (human, UniProt P24394 26-232).
T10 construct: not shown: hexahistidine tag
Description: as §1

Assay [11] addresses T11, hexahistidine tagged human IL-4Rα ECD T31R (human, UniProt P24394 26-232).
T11 construct: not shown: hexahistidine tag
Description: as §1

For assay [12], the target named is T12, hexahistidine tagged human IL-4Rα ECD E6R (human, UniProt P24394 26-232).
T12 construct: not shown: hexahistidine tag
Description: as §1

Assay [13] has as its target T13, hexahistidine tagged human IL-4Rα ECD K195D (human, UniProt P24394 26-232).
T13 construct: not shown: hexahistidine tag
Description: as §1

Assay [14] deals with T14, hexahistidine tagged human IL-4Rα ECD R160D (human, UniProt P24394 26-232).
T14 construct: not shown: hexahistidine tag
Description: as §1

Assay [15] concerns the target T15, hexahistidine tagged human IL-4Rα ECD H197G (human, UniProt P24394 26-232).
T15 construct: not shown: hexahistidine tag
Description: as §1

Assay [16] concerns the target T16, hexahistidine tagged human IL-4Rα ECD F41A (human, UniProt P24394 26-232).
T16 construct: not shown: hexahistidine tag
Description: as §1

Assay [17] concerns the target T17, hexahistidine tagged human IL-4Rα ECD S164R (human, UniProt P24394 26-232).
T17 construct: not shown: hexahistidine tag
Description: as §1

Assay [18] addresses T18, hexahistidine tagged human IL-4Rα ECD A71R (human, UniProt P24394 26-232).
T18 construct: not shown: hexahistidine tag
Description: as §1

T11 sequence (P24394 26-232 T56R): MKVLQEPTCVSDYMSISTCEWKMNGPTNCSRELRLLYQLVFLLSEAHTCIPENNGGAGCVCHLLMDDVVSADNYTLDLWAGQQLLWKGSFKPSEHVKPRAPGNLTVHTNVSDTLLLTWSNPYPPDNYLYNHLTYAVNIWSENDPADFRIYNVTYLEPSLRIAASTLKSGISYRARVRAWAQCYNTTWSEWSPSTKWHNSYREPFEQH
T16 sequence (P24394 26-232 F66A): as the sequence (P24394 26-232 T56R) above, with R31T, F41A counted along it
T14 sequence (P24394 26-232 R185D): as the sequence (P24394 26-232 T56R) above, with R31T, R160D counted along it
T5 sequence (P24394 26-232 L180R): as the sequence (P24394 26-232 T56R) above, with R31T, L155R counted along it
T15 sequence (P24394 26-232 H222G): as the sequence (P24394 26-232 T56R) above, with R31T, H197G counted along it
T1 sequence (P24394 26-232 P217R): as the sequence (P24394 26-232 T56R) above, with R31T, P192R counted along it
T10 sequence (P24394 other isoform, or with tags, fused parts or gaps): as the sequence (P24394 26-232 T56R) above, with K2D, R31T counted along it
T18 sequence (P24394 26-232 A96R): as the sequence (P24394 26-232 T56R) above, with R31T, A71R counted along it
T13 sequence (P24394 26-232 K220D): as the sequence (P24394 26-232 T56R) above, with R31T, K195D counted along it
T6 sequence (P24394 26-232 E70R): as the sequence (P24394 26-232 T56R) above, with R31T, E45R counted along it
T12 sequence (P24394 other isoform, or with tags, fused parts or gaps): as the sequence (P24394 26-232 T56R) above, with E6R, R31T counted along it
T8 sequence (P24394 26-232 Q206R): as the sequence (P24394 26-232 T56R) above, with R31T, Q181R counted along it
T9 sequence (P24394 26-232 D150R): as the sequence (P24394 26-232 T56R) above, with R31T, D125R counted along it

B1: anti-human IL-4Rα antibody Ab1 (antibody, human IgG4 S228P, kappa)
heavy: QVQLVESGGGLVQPGGSLRLSCVASGFTFSHSSMNWVRQAPGKGLEWVSYISRATGAVYYADSVKGRFTISRDNAKNSLYLQMNSLRDEDTAVYYCAREPVFDYWGQGTLVTVSSASTKGPCVFPLAPCSRSTSESTAALGCLVKDYFPEPVTVSWNSGALTSGVHTFPAVLQSSGLYSLSSVVTVPSSSLGTKTYTCNVDHKPSNTKVDKRVESKYGPPCPPCPAPEFLGGPSVFLFPPKPKDTLMISRTPEVTCVVVDVSQEDPEVKFNWYVDGVEVHNAKTKPREEQFNSTYRVVSVLTVLHQDWLNGKEYKCKVSNKGLPSSIEKTISKAKGQPREPQVYTLPPSREEMTKNQVSLTCLVKGFYPSDICVEWESNGQPENNYKTTPPVLDSDGSFFLYSRLTVDKSRWQQGNVFSCSVMHEALHNHYTQKSLSLSLG
light: DIQMTQSPSAMSASVGDRVTITCRASQDISNYLAWFQQKPGKVPTRLIYAASSLQSGVPSRFSGSGSGTEFTLTISSLQPEDFATYYCLQWSSYPRTFGQGTKVEIKRTVAAPSVFIFPPSDEQLKSGTASVVCLLNNFYPREAKVQWKVDNALQSGNSQESVTEQDSKDSTYSLSSTLTLSKADYEKHKVYACEVTHQGLSSPVTKSFNRGEC
notes: human kappa light chain; also called anti-human IL-4Rα Ab1; unconjugated Ab1
As to B1, the “ELISA (OD450)” value in assay [1] was 1.22 OD450; in assay [2], 1.1 OD450; in assay [3], 0.883 OD450; in [4] it was 1.1 OD450; in assay [5], 1.14 OD450; in [6], 1.58 OD450. Further, the “ELISA (OD450)” value was determined as 1.18 OD450 in assay [7]; 1.17 OD450 in [8]; 1.01 OD450 in [9]; 1.09 OD450 in assay [10]; 0.994 OD450 in assay [11]; 0.915 OD450 in assay [12]. The “ELISA (OD450)” value turned out to be 0.992 OD450 in assay [13]; 1.2 OD450 in assay [14]; 0.967 OD450 in [15]; 1.15 OD450 in [16]; 1.4 OD450 in assay [17]; 0.907 OD450 in assay [18].

For the origin of these results see patent US20240100176A1 (Eli Lilly, published 2024).
